Measurements taken from the RNAGym collection of RNA variant scans (doi:10.1073/pnas.2313332121).

B1: TPR t1 (parent)
chain: GACCAAUCUGCCCUCAGAGCUCGAGAACAUCUUCGGAUGCAGAGGAGGCAGGCUUCGGUGGCGCGAUAGCGCCAACGUCCUCAACCUCCAAUGCAUCCCACCACAUGAUGAUGCCUGAAGAGCCUUGGUUUUUUG

Variants of: B1
Assay: polymerase ribozyme fitness, log enrichment relative to wild type (log ratio); higher = more active; in vitro selection for triplet polymerase activity
How it was run: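 Libraries of mutants in each subunit of a heterodimeric triplet polymerase ribozyme were generated by PCR and transcribed. In triplicate, each went through one in vitro selection round: annealing with biotinylated primer, partner subunit and triplets; frozen incubation at −7 °C; gel excision of extended constructs; streptavidin-bead capture; RT-PCR. Fitness, taken from Illumina sequencing of input and output libraries, is the logarithm of a genotype's enrichment over wild-type enrichment, averaged across replicates with inverse-variance weights. The logarithm is base 2, and genotypes needed ≥10 input reads and ≥1 read per output to be kept.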

Row | Variant | polymerase ribozyme fitness (log ratio)
1 | C73A G117U | -2.74
2 | C73U U87A A105U | -1.83
3 | U81A A91G U92G | -4.76
4 | A74U G110C | -4.41
5 | C73U G110A | -0.705
6 | C73U C80A A90U U106A | -5.89
7 | C79G C85G | -3.02
8 | C79G C85A | -3.62
9 | C73G C101U U133A | -1.03
10 | C79U A95G A105U | -2.87
11 | C73G A119U U132C | -1.94
12 | C73A G128C | -2.05
13 | C73A C114A | -1.84
14 | A75G A83C G93C | -1.73
15 | G77U C88G | -1.02
16 | U78C C94G A108G C114G U130G | -5.42
17 | C79G C89U U112A | -2.07
18 | C79G C123U | 0.127
19 | G77A U109A | -5.95
20 | C73A C86U | 1.13
21 | C80G U106G G110A C124G | -6.57
22 | A74C C76A A121C | -1.23
23 | C76U C123G | 0.558
24 | U78C U106A | 0.00582

Row | Variant | polymerase ribozyme fitness (log ratio)
25 | C73U C89U C101U | -0.461
26 | C76U G110C | -4.7
27 | C80A C114G G117U | -6.34
28 | C79G G120A U130C | -1.26
29 | C73U C98A | -4.94
30 | U78C C86A | -0.372
31 | C73U C86G C115G U129A | -5.03
32 | G77U A111U | -3.23
33 | C73A C123A | 1.63
34 | C73A C123G | 1.74
35 | U78G C80U | -0.927
36 | U78A C82G C115A U130A | -0.912
37 | A74U A83G C99U A100U G120U | -6.6
38 | G77U C123U | 1.47
39 | G77U C123G | 1.23
40 | G77C U125C | -3.91
41 | C82A U87A | -0.237
42 | U78C U125A | -0.432
43 | C73G G110A | -1.17
44 | C73A G113C | -2.27
45 | C73A C123A G135C | 0.5
46 | C73G U109A | -5.36
47 | C73G U109G | -6.77
48 | U78A C94A U125G | -2.31

Row | Variant | polymerase ribozyme fitness (log ratio)
49 | C73A U126A | -1.73
50 | G77U C94U | 0.0625
51 | C80A U96C C115A | -3.34
52 | G77A U116A | -4.07
53 | C80U U133G | -0.514
54 | C73U A75G G77A U109G | -6.15
55 | C82A C97G | -5.53
56 | C79U U81A | -1.75
57 | C76A A121U U125G | 0.374
58 | A74C U106A C123U | 1.18
59 | A75G C123U | 1.55
60 | C73A C104A | -1.07
61 | U78C A118U | 0.929
62 | C73A C86U A100U C102A | -2.87
63 | A74C A84U | -0.261
64 | U78A U92G U125G | -4.08
65 | C80U U106A | -0.267
66 | C73A C124G | 0.687
67 | U78G C114U | -2.96
68 | U81C C97U C114A | -3.09
69 | A74C U78G C80U C115A | -2.23
70 | C73U U106A | -0.212
71 | A74U C104A C124G | 0.0488
72 | G77A C79U C124A | 1.87

Row | Variant | polymerase ribozyme fitness (log ratio)
73 | C73U A84U G110U | -1.67
74 | A74C U130A | -0.25
75 | A75U C82G U96A C115G | -3.29
76 | A74U A111C | -1.62
77 | C82A U92A | -3.43
78 | C73U C79A A90C C115A | -2.96
79 | C73G G117A C124A | 0.864
80 | C80U C97U | -0.856
81 | C73G C102A | -2.76
82 | C79A C94A | -2.38
83 | C73A U87A G120C C124A U132G | -4.42
84 | U78G C102U | -1.93
85 | U81G A95U | -6.29
86 | U78A C124G | 1.42
87 | U81A G117U | -3.99
88 | C80A U129A | -3.77
89 | C79U C82A | -1.23
90 | U78G U130G | -0.347
91 | U78G U116C U133A | -0.304
92 | C82A G93C A111C | -0.977
93 | U78A C104U C115U | -1.54
94 | C76G U81C C94A G117A | -2.22
95 | G77A C89A C94U G122A | -4.01
96 | C73U U78C U92G | -2.25

Row | Variant | polymerase ribozyme fitness (log ratio)
97 | C80U C98U | -1.69
98 | G77C G117C | -4.29
99 | C73U C88U | -0.361
100 | C79U C94U C98U | -1.64
101 | A75G C80A G128U U133C G135C | -4.6
102 | G77A A83C C94U C115G U116C U125G | -4.83
103 | C73G G120A | -0.212
104 | U78A C80A C94G U133A | -6.19
105 | C79U U106A U116C U126C | -1.17
106 | C79U G93A C102A | -2.33
107 | G77A U78C C115G | -2.5
108 | C82G A118U | 0.179
109 | C76G C123U | 1.06
110 | C76A A91G C115A | -0.508
111 | C73U U96C C99U | -3.39
112 | U78A C123U | 1.1
113 | C73A C99U A119U U130A | -4.24
114 | C79G C101A G135U | -4.68
115 | C73U G120A | 0.593
116 | C79A G107A G117U | -6.98
117 | U81A C102A | -3.36
118 | C79G U126A G128U | -4.31
119 | C73U G127C | -0.681
120 | C73U G127U | -0.489

Row | Variant | polymerase ribozyme fitness (log ratio)
121 | C73A U129C | -0.459
122 | U78C A121U | 1.42
123 | G77U A91U U133C | -1.24
124 | C76U C79A G120C | 0.319
125 | U78C U92G C114U | -2.3
126 | U78C G127U | -1.04
127 | A75U C99U U109G C115U U116A | -7.29
128 | U78A C115G | -2.13
129 | C76U A90G A105U | -1.84
130 | C73G A103C | -4.89
131 | C73U C82A | 0.468
132 | C73A C86U G128A | -1.81
133 | C79U C94A | -4.5
134 | C79U C94G | -0.831
135 | G77A | -0.264
136 | G77U | -0.194
137 | G77C | -0.424
138 | U81A C82A C98U | -3.39
139 | A74C G77C | -0.117
140 | G77U U132A | -0.53
141 | C76A C89A U133C | -2.43
142 | C73G C115U | -1.97
143 | C73G C115G | -0.331
144 | U78G C114U U129G | -4.71

Row | Variant | polymerase ribozyme fitness (log ratio)
145 | U78A G107C | -6.06
146 | U78G G93A G120U | -0.265
147 | C73A U106G G110C | -4.6
148 | A74C G113U C115U G117A C123A | -6.47
149 | U81C U106A | 0.0236
150 | C73G C124A | 1.65
151 | A75U C99U | -3.69
152 | C73U C76G U112G | -1.81
153 | U78G C89A G117A | -4.25
154 | C73U C124U | 1.94
155 | A74U C101U G113A C123G | -1.64
156 | G77C U106A A111C C114G U131C | -5.23
157 | C73G U133G | -1.21
158 | C73U U96G G117A | -2.78
159 | C79U C89U C102U G120C | -2.83
160 | C79A C85U | -2.34
161 | U78A C114A | -1.63
162 | C79G U87G U92C G120U | -4.54
163 | U78G A91C U92G | -3.13
164 | C73U U87C C89G G120A | -1.46
165 | C79A C88U C101U | -0.735
166 | C73A U87G | -0.467
167 | C73U C124A G127C | 1.61
